Consider one molecule from paper PMC9114370 (2022).

Usually Kd stands for the concentration at which binding is half-saturated. Read a high Kd as a looser complex.

The experiment addresses T1, TDP-43_(1–102) (human, UniProt Q13148 1-102, fluorescently labelled for MST).
T1 chain: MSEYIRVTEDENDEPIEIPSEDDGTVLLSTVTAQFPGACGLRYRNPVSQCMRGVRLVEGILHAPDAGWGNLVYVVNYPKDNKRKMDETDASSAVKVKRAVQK
Nature of the experiment: MST.

B1: HspA5 substrate binding domain (SBD) (domain or fragment)
chain: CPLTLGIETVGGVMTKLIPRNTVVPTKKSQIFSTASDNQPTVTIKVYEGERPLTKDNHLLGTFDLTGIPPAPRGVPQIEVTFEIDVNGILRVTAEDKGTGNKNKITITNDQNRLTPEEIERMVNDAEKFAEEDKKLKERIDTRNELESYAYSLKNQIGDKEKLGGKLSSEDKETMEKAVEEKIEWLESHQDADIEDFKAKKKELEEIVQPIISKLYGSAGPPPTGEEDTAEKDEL
Take B1: the Kd worked out at 1440 nM.
